Target: endogenous ARID2 (293T cells) (UniProt Q68CP9 2-1835, limits assumed)
Assay: immunoprecipitation of endogenous BAF/PBAF components in 293T cells
Method: For other immunoprecipitations, primary antibodies were incubated with lysates for 2 hr followed by Protein A magnetic beads (Life Technologies, 10001D).

Chain of endogenous ARID2 (293T cells) (Q68CP9 2-1835 limits assumed): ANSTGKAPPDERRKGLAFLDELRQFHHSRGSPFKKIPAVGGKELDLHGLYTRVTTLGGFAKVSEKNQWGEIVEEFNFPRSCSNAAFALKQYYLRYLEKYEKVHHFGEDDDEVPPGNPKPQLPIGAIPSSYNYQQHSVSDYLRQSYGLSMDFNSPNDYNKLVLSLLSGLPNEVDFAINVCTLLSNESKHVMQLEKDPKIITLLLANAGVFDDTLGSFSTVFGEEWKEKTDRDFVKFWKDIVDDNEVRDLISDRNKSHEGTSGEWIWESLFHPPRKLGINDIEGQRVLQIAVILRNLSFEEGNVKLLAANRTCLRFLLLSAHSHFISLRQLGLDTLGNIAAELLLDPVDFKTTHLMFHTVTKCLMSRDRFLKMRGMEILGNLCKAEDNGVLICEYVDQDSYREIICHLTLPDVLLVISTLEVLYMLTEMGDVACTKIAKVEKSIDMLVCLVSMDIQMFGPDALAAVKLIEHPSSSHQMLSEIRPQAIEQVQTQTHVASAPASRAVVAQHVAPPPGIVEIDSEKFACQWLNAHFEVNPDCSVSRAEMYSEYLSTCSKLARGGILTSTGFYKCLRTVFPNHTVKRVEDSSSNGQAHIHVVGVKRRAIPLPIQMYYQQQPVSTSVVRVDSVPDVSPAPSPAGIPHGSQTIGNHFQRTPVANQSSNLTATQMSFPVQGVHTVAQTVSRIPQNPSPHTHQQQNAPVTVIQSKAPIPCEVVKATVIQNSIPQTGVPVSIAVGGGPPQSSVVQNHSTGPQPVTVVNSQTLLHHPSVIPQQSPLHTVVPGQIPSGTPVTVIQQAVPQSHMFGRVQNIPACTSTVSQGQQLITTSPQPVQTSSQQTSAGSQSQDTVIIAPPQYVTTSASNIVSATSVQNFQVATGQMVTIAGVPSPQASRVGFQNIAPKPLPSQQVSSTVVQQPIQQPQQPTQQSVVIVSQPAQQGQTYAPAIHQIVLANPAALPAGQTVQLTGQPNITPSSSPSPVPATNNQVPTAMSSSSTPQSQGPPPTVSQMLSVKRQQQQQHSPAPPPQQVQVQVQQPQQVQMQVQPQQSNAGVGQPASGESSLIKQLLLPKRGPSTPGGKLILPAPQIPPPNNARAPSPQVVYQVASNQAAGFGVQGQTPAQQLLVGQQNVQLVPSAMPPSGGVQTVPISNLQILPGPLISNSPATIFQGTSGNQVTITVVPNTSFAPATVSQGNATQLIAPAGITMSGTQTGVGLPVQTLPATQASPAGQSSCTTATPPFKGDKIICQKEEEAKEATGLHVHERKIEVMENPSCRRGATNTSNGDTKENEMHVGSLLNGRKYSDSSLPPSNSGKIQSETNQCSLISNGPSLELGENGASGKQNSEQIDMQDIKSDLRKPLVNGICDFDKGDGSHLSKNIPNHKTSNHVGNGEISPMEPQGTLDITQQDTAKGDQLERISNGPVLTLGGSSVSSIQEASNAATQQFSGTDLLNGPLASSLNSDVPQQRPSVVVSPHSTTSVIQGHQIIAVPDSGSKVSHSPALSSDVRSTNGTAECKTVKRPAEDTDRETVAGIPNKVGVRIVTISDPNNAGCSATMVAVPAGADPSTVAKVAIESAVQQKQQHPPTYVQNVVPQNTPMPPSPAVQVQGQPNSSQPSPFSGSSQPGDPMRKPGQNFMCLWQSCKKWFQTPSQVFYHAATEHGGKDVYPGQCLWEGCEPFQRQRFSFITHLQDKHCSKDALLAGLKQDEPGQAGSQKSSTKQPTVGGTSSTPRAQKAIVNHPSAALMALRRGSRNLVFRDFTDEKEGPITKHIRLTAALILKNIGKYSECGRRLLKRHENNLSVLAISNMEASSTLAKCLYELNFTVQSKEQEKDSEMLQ

- binding result: no binding
B1: endogenous bromodomain-containing protein 9 (BRD9) (other, human, UniProt Q9H8M2 1-597, looked up)
chain: MGKKHKKHKAEWRSSYEDYADKPLEKPLKLVLKVGGSEVTELSGSGHDSSYYDDRSDHERERHKEKKKKKKKKSEKEKHLDDEERRKRKEEKKRKREREHCDTEGEADDFDPGKKVEVEPPPDRPVRACRTQPAENESTPIQQLLEHFLRQLQRKDPHGFFAFPVTDAIAPGYSMIIKHPMDFGTMKDKIVANEYKSVTEFKADFKLMCDNAMTYNRPDTVYYKLAKKILHAGFKMMSKQAALLGNEDTAVEEPVPEVVPVQVETAKKSKKPSREVISCMFEPEGNACSLTDSTAEEHVLALVEHAADEARDRINRFLPGGKMGYLKRNGDGSLLYSVVNTAEPDADEEETHPVDLSSLSSKLLPGFTTLGFKDERRNKVTFLSSATTALSMQNNSVFGDLKSDEMELLYSAYGDETGVQCALSLQEFVKDAGSYSKKVVDDLLDQITGGDHSRTLFQLKQRRNVPMKPPDEAKVGDTLGDSSSSVLEFMSMKSYPDVSVDISMLSSLGKVKKELDPDDSHLNLDETTKLLQDLHEAQAERGGSRPSSNLSSLSNASERDQHHLGSPSRLSVGEQPDVTHDPYEFLQSPEPAASAKT
notes: Endogenous protein in cell lysates; also called bromodomain-containing factor 9

Reference: patent publication US20200129532A1 (SALK INSTITUTE FOR BIOLOGICAL STUDIES, published 2020)
